Series [1] concerns the target T1, TP53 (recombinant human, Calbiochem 506165) (human, UniProt P04637 1-393). The series can be described thus: EMSA; shifted band faded by anti-TP53 antibody; EMSA as in a cited earlier paper; buffer, salt, pH and temperature not given; competitor 100x excess added 10 min before probe; antibody preincubation 1 h on ice. The following applies: protein: commercial; chain copies: 4; label: 32P (Klenow fill-in with [alpha-32P]-dCTP); 5' overhang 1 nt (G) on strand 1, filled in with labelled dC.

Series [2] has as its target T1, TP53 (recombinant human, Calbiochem …). The experiment in a line: EMSA; anti-TP53 antibody tested; EMSA as in a cited earlier paper; buffer, salt, pH and temperature not given; competitor 100x excess added 10 min before probe; antibody preincubation 1 h on ice. The settings on record: protein: commercial; chain copies: 4; label: 32P (Klenow fill-in with [alpha-32P]-dCTP); 5' overhang 1 nt (G) on strand 2, filled in with labelled dC.

T1 sequence (P04637 whole entry): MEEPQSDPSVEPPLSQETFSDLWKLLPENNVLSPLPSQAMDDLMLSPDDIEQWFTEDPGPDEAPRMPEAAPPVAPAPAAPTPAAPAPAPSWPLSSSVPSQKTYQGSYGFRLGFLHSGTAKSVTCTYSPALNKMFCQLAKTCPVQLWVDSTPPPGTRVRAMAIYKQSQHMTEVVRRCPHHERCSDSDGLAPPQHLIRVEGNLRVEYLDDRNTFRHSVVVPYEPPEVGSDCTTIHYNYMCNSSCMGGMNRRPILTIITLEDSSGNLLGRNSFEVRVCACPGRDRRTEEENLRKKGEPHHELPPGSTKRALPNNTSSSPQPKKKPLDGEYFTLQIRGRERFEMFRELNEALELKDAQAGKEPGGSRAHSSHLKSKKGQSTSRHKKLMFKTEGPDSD

B1: wtFOXA1 probe (dsDNA)
DNA 1: GGAAAGTGCAAGTCTGGACATGTTTATCAAGAGG
DNA 2: CCTCTTGATAAACATGTCCAGACTTGCACTTTC
For B1, the binding result in series [1] is “binds”.

B2: TP53 probe (putative TP53 site, Panomics) (dsDNA)
DNA 1: TACAGAACATGTCTAAGCATGCTGGGG
DNA 2: GCCCCAGCATGCTTAGACATGTTCTGTA
With B2, in series [2], the binding result is “binds”.

Values taken from paper PMC7522722, “Differential epigenetic regulation between the alternative promoters, PRDM1α and PRDM1β, of the tumour suppressor gene PRDM1 in human multiple myeloma cells”.
